Consider one molecule from article PMC12373898 (Communications Biology, 2025).

The assay addresses F-actin (pre-assembled, AlexaFluor-labeled) (rabbit, UniProt P68135 1-377, AlexaFluor-labeled actin added to the polymerisation). As to the kind of experiment: TIRF microscopy in vitro reconstitution.

B1: His-GFP-Maspin-StrepII (natural protein)
chain: MDALQLANSAFAVDLFKQLCEKEPLGNVLFSPICLSTSLSLAQVGAKGDTANEIGQVLHFENVKDVPFGFQTVTSDVNKLSSFYSLKLIKRLYVDKSLNLSTEFISSTKRPYAKELETVDFKDKLEETKGQINNSIKDLTDGHFENILADNSVNDQTKILVVNAAYFVGKWMKKFSESETKECPFRVNKTDTKPVQMMNMEATFCMGNIDSINCKIIELPFQNKHLSMFILLPKDVEDESTGLEKIEKQLNSESLSQWTNPSTMANAKVKLSIPKFKVEKMIDPKACLENLGLKHIFSEDTSDFSGMSETKGVALSNVIHKVCLEITEDGGDSIEVPGARILQHKDELNADHPFIYIIRHNKTRNIIFFGKFCSP
Regarding B1, the binding result is reported as “binds”.
